Source: the supplement of paper PMC10126150
± gives the standard deviation of the averaged measurements.

The sequences below were run on ATP (assay: switch fluorescence ratio, 500 uM ATP over buffer (Cy3 cluster intensity, sum of 5 cycles each) (fold (ratio)); higher = stronger signal-on switching upon ATP binding; sequences stand for … in TCGTCGGCAGCGTCAGATGTGTATAAGAGACAGTTTTTTTTTTTTTTTTTTTTTTTTT…TC). Conditions: aptamer strand: ATP DNA aptamer (quencher-CACCTGGGGGAGTATTGCGGAGGAAGG + anchor), 100 nM annealed; ATP concentration: 500 uM.
Procedure, shortened: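 Switching-strand clusters labelled with Cy3 on a modified Illumina MiSeq flow-cell were annealed to 100 nM quencher-labelled ATP aptamer, imaged in selection buffer, and re-imaged after 15 min with 500 uM ATP at 22 °C. This was done over five cycles with NaOH stripping and re-annealing in between. The fluorescence ratio is summed target-cycle over summed buffer-cycle Cy3 intensity per cluster, averaged per switch-domain sequence, excluding clusters outside 100-1000 RFU.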
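Further: ATP exposure 15 min at 22 °C before imaging.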

Sequence	switch fluorescence ratio
TGGTTACGGG	0.993 ± 0.012
TGGTTATGTA	1 ± 0.014
TGGTTCAAGT	0.984 ± 0.011
TGGTTGAATA	0.998 ± 0.05
TGGTTGCAGG	1.05 ± 0.042
TGGTTGGCGT	1.04 ± 0.066
TGGTTGGTGT	1.06 ± 0.015
TGGTTGTGGG	0.996 ± 0.028
TGGTTTAGTG	0.976 ± 0.031
TGGTTTCCTT	0.955 ± 0.025
TGGTTTCGTG	1.01 ± 0.023
TGGTTTGGAA	0.998 ± 0.05
TGGTTTGGGA	1 ± 0.029
TGGTTTTTAA	0.977 ± 0.052
TGGTTTTTGA	0.988 ± 0.038
TGTAAAAAAA	1.04 ± 0.044
TGTAAAACTA	1.02 ± 0.028
TGTAAAGGGT	0.9778 ± 0.0084
TGTAAATTTT	1.03 ± 0.041
TGTAACTTGC	1.077 ± 0.0036
TGTAAGAAAA	0.985 ± 0.052
TGTAAGAGCG	0.9934 ± 0.0022
TGTAAGCTAG	1.017 ± 0.0066
TGTAAGGGAA	1.01 ± 0.018
TGTAAGGTCG	1.013 ± 0.01
TGTAAGGTGA	1.03 ± 0.022

Sequence	switch fluorescence ratio
TGTAAGTATT	1.02 ± 0.018
TGTAATTACA	1.003 ± 0.0061
TGTAATTTCG	1.03 ± 0.04
TGTAATTTTC	1.05 ± 0.12
TGTACAAAAT	0.986 ± 0.047
TGTACCGTGC	1.07 ± 0.068
TGTACGAGAA	1.003 ± 0.0035
TGTACGGGGT	1.01 ± 0.021
TGTACTAGGG	1.001 ± 0.0069
TGTAGAAAGG	1.03 ± 0.046
TGTAGACTGA	1.01 ± 0.011
TGTAGAGCCA	1.03 ± 0.035
TGTAGCAGGG	1.12 ± 0.043
TGTAGGCGGC	1.02 ± 0.015
TGTAGTGTTG	1 ± 0.043
TGTAGTTTGG	1.02 ± 0.032
TGTATATTTT	0.98 ± 0.021
TGTATGAACT	0.98027 ± 3.7e-05
TGTATTAAGG	1.01 ± 0.036
TGTATTATGG	0.968 ± 0.0097
TGTATTGAAC	1.03 ± 0.0024
TGTATTGTGG	0.987 ± 0.021
TGTATTTGGC	0.914 ± 0.044
TGTATTTTTA	1.01 ± 0.029
TGTCAGTTGG	1.02 ± 0.06
TGTCCATGGG	1.013 ± 0.0047

Sequence	switch fluorescence ratio
TGTCCCAAGC	1.18 ± 0.03
TGTCCGTTGG	1.05 ± 0.084
TGTCCGTTTG	1.01 ± 0.023
TGTCCTAAAA	1.05 ± 0.04
TGTCCTCAAT	1.22 ± 0.02
TGTCGCTGGG	1.02 ± 0.01
TGTCGGCGGT	1.05 ± 0.065
TGTCGGGGTA	0.995 ± 0.016
TGTCGTGTTT	0.9679 ± 0.0014
TGTCGTTGGG	0.9566 ± 0.0035
TGTGAAAAGT	0.996 ± 0.028
TGTGAAAATT	1.01 ± 0.051
TGTGAAACCT	1.95 ± 1.2
TGTGACCGAA	0.9794 ± 0.0017
TGTGACGGGA	1.091 ± 0.0051
TGTGAGGCGC	1 ± 0.044
TGTGAGGCTA	1.03 ± 0.012
TGTGAGTGTA	1.01 ± 0.025
TGTGATGCTG	1.02 ± 0.044
TGTGATTGTT	1.02 ± 0.013
TGTGATTTTC	1.01 ± 0.016
TGTGCAAAGG	0.997 ± 0.042
TGTGCGTGAG	0.9776 ± 0.0015
TGTGCTATTT	1.09 ± 0.17
TGTGCTTGGG	1.04 ± 0.027
TGTGGAAGTT	0.9686 ± 0.0021

Sequence	switch fluorescence ratio
TGTGGACCAC	1.04 ± 0.038
TGTGGAGCAT	1.29 ± 0.071
TGTGGATGTC	0.977 ± 0.038
TGTGGCAATT	1.07 ± 0.037
TGTGGCATTA	0.992 ± 0.023
TGTGGCGTAT	1.011 ± 0.0014
TGTGGGAATT	1.01 ± 0.049
TGTGGGATGT	0.9704 ± 0.0039
TGTGGGCAAT	1.56 ± 0.77
TGTGGGCAGT	1.02 ± 0.03
TGTGGGCGGA	1.001 ± 0.0079
TGTGGGGATT	1.02 ± 0.032
TGTGGGGCGG	1.01 ± 0.051
TGTGGGGGCA	0.9953 ± 0.0057
TGTGGGGGCG	1.01 ± 0.017
TGTGGGGGGT	0.992 ± 0.027
TGTGGGTTCC	1.06 ± 0.11
TGTGGTAGGT	1.01 ± 0.057
TGTGGTTGGT	1.01 ± 0.032
TGTGGTTTTG	0.9586 ± 0.0042
TGTGTAAGAC	1.16 ± 0.022
TGTGTATCGG	0.958 ± 0.034
TGTGTATGGT	1.01 ± 0.022
TGTGTATTGG	1 ± 0.045
TGTGTATTTT	0.992 ± 0.028
TGTGTCAGTG	1.01 ± 0.081

Sequence	switch fluorescence ratio
TGTGTGAAAA	1 ± 0.032
TGTGTGGCGC	1.02 ± 0.032
TGTGTGGGGA	1.01 ± 0.027
TGTGTGGGTC	0.991 ± 0.028
TGTGTGTGAA	0.996 ± 0.035
TGTGTGTGGG	1.03 ± 0.012
TGTGTTCCCT	0.982 ± 0.028
TGTGTTCCTT	1 ± 0.018
TGTGTTTGTT	0.998 ± 0.017
TGTTAAAATT	0.969 ± 0.063
TGTTAAGGAA	1.02 ± 0.029
TGTTAATAAC	1 ± 0.052
TGTTAATATT	0.989 ± 0.018
TGTTAATGGT	0.994 ± 0.025
TGTTAATGTG	1.004 ± 0.0038
TGTTAATTGA	1.01 ± 0.015
TGTTACCTGA	1.058 ± 0.01
TGTTACTCGT	1.03 ± 0.0012
TGTTAGAACG	1.02 ± 0.015
TGTTAGATGA	0.976 ± 0.013
TGTTAGATTT	1.05 ± 0.19
TGTTAGGGGC	0.98 ± 0.046
TGTTAGTCTT	0.969 ± 0.057
TGTTAGTTTT	0.981 ± 0.013
TGTTATATTG	1 ± 0.035
TGTTCCAATA	1.03 ± 0.024

Sequence	switch fluorescence ratio
TGTTCCGACT	1.05 ± 0.051
TGTTCCGCCC	2.012 ± 0.0024
TGTTCCGGGA	1.04 ± 0.023
TGTTCCTTTT	1.03 ± 0.023
TGTTCGGTGT	1.008 ± 0.0049
TGTTCTAGTT	1.01 ± 0.015
TGTTCTTATA	0.993 ± 0.026
TGTTGAAATT	1.03 ± 0.077
TGTTGAAGGG	1.01 ± 0.014
TGTTGAGGCG	0.981 ± 0.015
TGTTGAGTTT	0.994 ± 0.027
TGTTGATCAG	0.982 ± 0.03
TGTTGCAGTT	1.03 ± 0.02
TGTTGCCAAT	1.01 ± 0.029
TGTTGCGCTT	1.033 ± 0.007
TGTTGCGGGG	0.995 ± 0.038
TGTTGCGTTA	0.985 ± 0.021
TGTTGCTGGA	1 ± 0.03
TGTTGGACGG	1.07 ± 0.037
TGTTGGACGT	1.036 ± 0.0024
TGTTGGAGAG	1.02 ± 0.02
TGTTGGAGGG	1.04 ± 0.027
TGTTGGAGGT	1.02 ± 0.045
